Source: publication PMC5119942 (The Journal of Cell Biology, 2016)

Experiments:
Trs130-TAP (recombinant) = molecular target: T1, Trs130-TAP (recombinant) (yeast, UniProt Q03660 1-1102); experiment: co-purification of co-expressed subunits
T1 sequence (looked up): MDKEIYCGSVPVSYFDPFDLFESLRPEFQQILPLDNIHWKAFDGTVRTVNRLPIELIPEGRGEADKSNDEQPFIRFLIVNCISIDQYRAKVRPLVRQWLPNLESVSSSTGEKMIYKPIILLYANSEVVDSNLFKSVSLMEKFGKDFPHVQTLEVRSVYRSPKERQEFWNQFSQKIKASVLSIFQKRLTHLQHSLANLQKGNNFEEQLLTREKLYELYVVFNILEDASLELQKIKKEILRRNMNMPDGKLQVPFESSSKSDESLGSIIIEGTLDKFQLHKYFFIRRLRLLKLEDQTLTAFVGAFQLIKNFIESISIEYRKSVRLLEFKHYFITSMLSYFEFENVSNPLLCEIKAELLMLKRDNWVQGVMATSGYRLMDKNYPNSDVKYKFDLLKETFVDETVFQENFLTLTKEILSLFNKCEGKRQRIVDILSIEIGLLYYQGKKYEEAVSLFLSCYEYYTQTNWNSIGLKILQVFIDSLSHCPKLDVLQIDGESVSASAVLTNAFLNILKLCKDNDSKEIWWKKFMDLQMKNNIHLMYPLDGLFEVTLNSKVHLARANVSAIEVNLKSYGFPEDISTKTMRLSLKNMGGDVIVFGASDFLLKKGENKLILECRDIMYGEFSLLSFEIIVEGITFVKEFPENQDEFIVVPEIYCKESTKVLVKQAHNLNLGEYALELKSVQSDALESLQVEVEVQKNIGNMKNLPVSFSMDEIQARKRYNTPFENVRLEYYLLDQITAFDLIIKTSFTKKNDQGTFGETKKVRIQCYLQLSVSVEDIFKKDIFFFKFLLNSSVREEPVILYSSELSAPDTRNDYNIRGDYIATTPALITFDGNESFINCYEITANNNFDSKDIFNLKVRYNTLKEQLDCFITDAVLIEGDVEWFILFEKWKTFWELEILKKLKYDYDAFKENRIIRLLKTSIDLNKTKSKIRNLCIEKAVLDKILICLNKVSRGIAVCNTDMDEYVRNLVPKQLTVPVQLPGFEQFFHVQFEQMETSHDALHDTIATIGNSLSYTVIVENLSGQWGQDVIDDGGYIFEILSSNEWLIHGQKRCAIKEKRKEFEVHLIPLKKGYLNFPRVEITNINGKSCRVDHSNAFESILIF

His6-Trs31 (recombinant) = molecular target: T2, His6-Trs31 (recombinant) (yeast, UniProt Q03337 1-283); experiment: co-purification of co-expressed subunits
T2 sequence (looked up): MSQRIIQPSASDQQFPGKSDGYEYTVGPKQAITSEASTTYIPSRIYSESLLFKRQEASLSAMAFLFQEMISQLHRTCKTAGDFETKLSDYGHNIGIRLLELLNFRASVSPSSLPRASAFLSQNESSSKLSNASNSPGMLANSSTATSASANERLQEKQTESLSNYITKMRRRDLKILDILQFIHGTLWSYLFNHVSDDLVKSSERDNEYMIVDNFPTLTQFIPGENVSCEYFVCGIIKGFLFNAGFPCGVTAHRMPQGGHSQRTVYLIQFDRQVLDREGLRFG

- stoichiometry N (Trs130-TAP (recombinant)): 2
- stoichiometry N (His6-Trs31 (recombinant)): 2
B1: Bet3 (recombinant) (natural protein, yeast, UniProt P36149 1-193, looked up)
chain: MVSTTQSRSLKAMGEEIWKNKTEKINTELFTLTYGSIVAQLCQDYERDFNKVNDHLYSMGYNIGCRLIEDFLARTALPRCENLVKTSEVLSKCAFKIFLNITPNITNWSHNKDTFSLILDENPLADFVELPMDAMKSLWYSNILCGVLKGSLEMVQLDCDVWFVSDILRGDSQTEIKVKLNRILKDEIPIGED
